Consider 19 sequences from the supplement of paper PMC9170038.

The test system of this data set is K4 kissing-loop RNA reporter. In words: apparent KD of K4 kissing-loop reporter; higher = weaker reporter binding. Conditions: Eterna round: R107. The protocol:
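RNA-MaP round R107: designed RNA switches with theophylline, tryptophan, arginine or FMN aptamers are transcribed on-chip within common flanks. They are titrated with a labelled K4 kissing-loop RNA reporter in RNA-MaP buffer (100 mM Tris pH 7.5, 80 mM KCl, 4 mM MgCl2), without ligand or with the indicated ligand. Median apparent KD per design.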

[1] abbreviates: input ligand: theophylline 20 uM.
Setting [2] is: input ligand: tryptophan 2.4 mM.
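Further: bound reporter read as fluorescence of individual clusters on recovered sequencing chips by microscopy, with normalized cluster intensities fitted with a binding model.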

Consider “AAAAUAAAUAGCAGUCAUGGAGUGAUGUUCCGAGGACCGGUACGGCCGCCACUCGACCAUCAUAAGAUGGAAUGGCAAGACUGCA [#SwitchBubble 23 #K4Early]”, for which the “apparent KD of K4 kissing-loop reporter” value by setting is: (input ligand: FMN 200 uM) 0.33 µM; (input ligand: arginine 13.2 mM) 0.265 µM; (input ligand: none) 0.358 µM; under setting [1], 0.418 µM; under setting [2], 0.208 µM.
On the same counts, the results for “AAAAUAAAUCAGUGAUGUUGGUAUCUGGAUACCAGCGAUAAUAGUCGCCCUUGGCAGCCAUGGACGUACAAAAUAAGUACGUCCU [MatMod 19 - Jieux - Same State - Theophylline A]” are 0.221 µM, 0.117 µM, 0.183 µM, 0.17 µM and 0.16 µM.
In the same order, the values of “AAAAUUGCGGUCGAAAGAACUUCUUGCAUACGAGGACCGGUACGGCCGCCACUCGAGUCAAGUGAUGUUUGAUUUUCUAUUAUUA [JR_ExcTryptoA_Sub013]” are 0.135 µM, 0.17 µM, 0.16 µM, 0.205 µM and 0.153 µM.
As to “AAACCAAUCAGAGGAUAUUCUUUAUUCGACAUAAAUUUCUAUAAAUUGCAGUGAUGUUGCAAUAUAGGAGAAGGCUGAUUGACAA [Exclusion FMN B Gf 12]”, the “apparent KD of K4 kissing-loop reporter” value (input ligand: FMN 200 uM) was found to be 0.239 µM; the “apparent KD of K4 kissing-loop reporter” value (input ligand: arginine 13.2 mM) came out at 0.199 µM; the “apparent KD of K4 kissing-loop reporter” value (input ligand: none) was found to be 0.204 µM; the “apparent KD of K4 kissing-loop reporter” value under setting [1] stood at 0.229 µM; the “apparent KD of K4 kissing-loop reporter” value under setting [2] came out at 0.223 µM.
For the sequence “AAACGUUGGUGCGAUACCAGCUGCUCGGAAACGAGCUUGCUGGAGUGAUGUUCCAGGAAAAGCCCUUGGCAGCGCACCGACGAAA [MAT - Same State Theophlline B - Mod of Eli - D27]”, the “apparent KD of K4 kissing-loop reporter” value by setting is: (input ligand: FMN 200 uM) 0.856 µM; (input ligand: arginine 13.2 mM) 0.561 µM; (input ligand: none) 2.04 µM; under setting [1], 0.738 µM; under setting [2], 0.715 µM.
In the same order, the values of “AAAGAUCUUCUAGAAACUAGAAGAUCAAGAGAGGAUAUCCGAAUUCGGAGAAGGCUCACUAAGUGAUGUUUGGAGGGAAUCCCAA [AK1 SS FMN A]” are 1.25 µM, 0.805 µM, 1.67 µM, 1.29 µM and 1.36 µM.
In the same order, the values of “AAAGAUGCGUCGGCCGCCACUGUUGCCAGUGAUGUUGGCAUGUAGAUGCAGUGAUGUUGCGUUUUCAGGACCGGGACGUAAGAUG [5th]” are 0.261 µM, 0.253 µM, 0.302 µM, 0.246 µM and 0.134 µM.
In the same order, the values of “AAAGUCGGCUGUGAUACCAGUCAUAUAACAACAUAUCGCAGUGAUGUUGCGAGAUAGGAUGACCCUUGGCAGCACUCAGUACGAU [Same State Theophylline B GF 6]” are 0.349 µM, 0.36 µM, 0.38 µM, 0.331 µM and 0.338 µM.
For “AAAUAAAUCACGGCCGCCACUGCUAGAGUGAUGUUCUAUUAAUAAUUUCUAAAUUAUAUAAUACUCAGGACCGGGUGAUUUUUAA [JR_SSTryptoB_Sub020]”, the “apparent KD of K4 kissing-loop reporter” value by setting is: (input ligand: FMN 200 uM) 0.578 µM; (input ligand: arginine 13.2 mM) 0.215 µM; (input ligand: none) 0.355 µM; under setting [1], 0.426 µM; under setting [2], 0.446 µM.
Consider “AAAUAAAUGGCGGCCGCCACUGAACGCCUCCGCGUGGGUAUAUAGUGAUGUUAUAUGGCCGCCAUCAGGACCGGGCCAAAUAAAA [#08 K4 Tryptophan B Same State]”, for which the “apparent KD of K4 kissing-loop reporter” value was 0.33 µM (input ligand: FMN 200 uM); 0.259 µM (input ligand: arginine 13.2 mM); 0.502 µM (input ligand: none); 0.377 µM under setting [1]; 0.222 µM under setting [2].
In the same order, the values of “AAAUAGCUGACGUUGAGUGGGAGCCAGGCACGAGGACCGGUACGGCCGCCACUCGACUAGGUUUUCAGUGAUGUUGAAAAUUUAA [Exclusion Tryptophan A GF 5]” are 0.239 µM, 0.249 µM, 0.206 µM, 0.224 µM and 0.194 µM.
As to “AAAUAUUGUUACCUGUUAACAUAGGGCCAACGAGGACCGGUACGGCCGCCACUCGUCUCAUAGCGAGUGAUGUUCGCACCGCCCA”, the “apparent KD of K4 kissing-loop reporter” value is 0.133 µM (input ligand: FMN 200 uM); 0.0582 µM (input ligand: arginine 13.2 mM); 0.0766 µM (input ligand: none); 0.123 µM under setting [1]; 0.126 µM under setting [2].
On the same counts, the results for “AAAUUCUUUUUUUUAUUUAACUUUUCAGAAGGAGCGUGGUAGUACACAGGUAGGUCGCUGAAUUUUAGACUAGUGAUGUUAGUUA [JR_SSArginiA_Sub008]” are 0.13 µM, 0.156 µM, 0.19 µM, 0.182 µM and 0.151 µM.
On the same counts, the results for “AACUCUCAGGCACGCGAGUGAUGUUCGCGGCGAGGACCGGUACGGCCGCCACUCGCGCCUGAGAGAGGUUAUCAAAGAUAGCCAA [whbob_SS_tryp_A]” are 0.146 µM, 0.0513 µM, 0.116 µM, 0.118 µM and 0.223 µM.
As to “AACUGCUAAGAGGUUAAGCACGUCAUUAUGAAGGAUAUAGAAUUCACUAGAAGGUCAUGUGCCCUGAGUGAUGUUCAGAUAGGCG [theeternabot_sameState_KL_FMN_A_25]”, the “apparent KD of K4 kissing-loop reporter” value is, setting by setting: (input ligand: FMN 200 uM) 0.294 µM; (input ligand: arginine 13.2 mM) 0.229 µM; (input ligand: none) 0.236 µM; under setting [1], 0.421 µM; under setting [2], 0.336 µM.
Take “AACUGUCAAGGCCAACAUUACUGAGGUGAUACCAGCAUCGAAAGAUGCCCUUGGCAGCACCAACUUGCAGUGAUGUUGCAAGUAA [BrourdMod 13 - Jieux - Exclusion - Theophylline A]”: the “apparent KD of K4 kissing-loop reporter” value by setting is: (input ligand: FMN 200 uM) 0.231 µM; (input ligand: arginine 13.2 mM) 0.203 µM; (input ligand: none) 0.234 µM; under setting [1], 0.307 µM; under setting [2], 0.225 µM.
On to “AAGAAUAAUCUUGCAGUGAUGUUGCAAGAUACCAGCAUCGAAAGAUGCCCUUGGCAGCUUGAAAACAUCACUAUCAAGCUGCAUA [Design2]”, for which the “apparent KD of K4 kissing-loop reporter” value is, setting by setting: (input ligand: FMN 200 uM) 0.62 µM; (input ligand: arginine 13.2 mM) 0.452 µM; (input ligand: none) 0.664 µM; under setting [1], 0.552 µM; under setting [2], 0.558 µM.
In the same order, the values of “AAGCAGUCACGCGAAGCCAUCGAAGAUGGACGAGGACCGGUACGGCCGCCACUCGGAGUGAUGUUCCGAAGACUGCAAAAUAAAA” are 0.515 µM, 0.499 µM, 0.42 µM, 0.599 µM and 0.363 µM.
On to “AAGCAGUCACUCGAAUCCAUCGAAGAUGGGCGAGGACCGGUACGGCCGCCACUCGGAGUGAUGUUCCGCAGACUGCAAAAUAAAA”, for which the “apparent KD of K4 kissing-loop reporter” value by setting is: (input ligand: FMN 200 uM) 0.636 µM; (input ligand: arginine 13.2 mM) 0.402 µM; (input ligand: none) 0.863 µM; under setting [1], 0.58 µM; under setting [2], 0.478 µM.
